Key:
hMPV B2 F GCN4 = assay: ELISA
[1] = biological target: hMPV F protein of subgroup B1 (ELISA panel) (human metapneumovirus (subgroup B1)); assay: ELISA
[2] = biological target: hMPV F protein of subgroup A2 (ELISA panel) (human metapneumovirus (subgroup A2)); assay: ELISA
[3] = biological target: post-fusion trimeric hMPV B2 F (trypsin treated) (human metapneumovirus (subgroup B2)); assay: ELISA
[4] = biological target: monomeric hMPV B2 F protein, treated with trypsin (human metapneumovirus (subgroup B2)); assay: ELISA
[5] = biological target: hMPV F protein of subgroup A1 (ELISA panel) (human metapneumovirus (subgroup A1)); assay: ELISA
[6] = biological target: recombinant hMPV B2 F protein (human metapneumovirus (subgroup B2)); assay: ELISA
[7] = biological target: biotinylated monomeric hMPV B2 F protein (human metapneumovirus (subgroup B2), biotin (site not stated)); assay: BLI

B1: MPE8 monoclonal antibody (recombinant, human IgG1) (antibody, V domains shown)
VH: EVQLVESGGGLVKPGGSLRLSCAASGFTFSSYSMNWVRQAPGKGLEWVSSISSSSSYIYYADSVKGRFTISRDNAKNSLYLQMNSLRAEDTAVYYCARARATGYNSITPYFDIWGQGTLVTVSS
VL: QSVVTQTPSVSGAPGQRVTISCTGSSSNIGAGYDVHWYQQLPGTAPKLLIYDNNNRPSGVPDRFSASKSGTSASLAITGLQAEDEADYYCQSYDRSLSGVFGTGTKVTVL
For B1, the EC50 (hMPV B2 F GCN4) was 4.7 µg/mL, the EC50 [1] was 3.1 µg/mL and the EC50 [2] was 4.3 µg/mL. The EC50 [3] was 1.3 µg/mL, the EC50 [4] was 0.63 µg/mL and the EC50 [5] was 1.3 µg/mL. The EC50 [6] was 2 µg/mL.

B2: MPV458 human monoclonal antibody (antibody, V domains shown)
VH: QGKLVESGGGVIQPGRSLRLSCAASGFDFSRYGLHWVRQAPGKGLEWVAVIVYAGSNKYYADSVKGRFTISKDNSKNTMHLQMSDLRTEDTAVYYCARDQAFDLWGQGTMVTVSS
VL: DIQMTQSPASLSASVGDRVTITCQASQGISRSVNWYQQKPGKAPKLLIFDASHLERGVPSRFSGSGYGTDFTFTISSLQPEDIATYYCQQYDNLRISFGQGTRLEIK
B2 showed an EC50 (hMPV B2 F GCN4) of 0.2 µg/mL, an EC50 [1] of 0.39 µg/mL and an EC50 [2] of 0.39 µg/mL. The EC50 [3] was 0.13 µg/mL, the EC50 [4] was 0.027 µg/mL and the EC50 [5] was 0.33 µg/mL. For the same binder, the EC50 [6] was 0.12 µg/mL.

B3: MPV458 Fab (Fab, V domains shown)
VH: B2 VH
VL: B2 VL
B3 gave a koff [7] of 8.4e-05 s⁻¹.

— article PMC7598476 (2020)
